Test [1] deals with fibronectin (human (endogenous in dHL-60)) (UniProt P02751).
Test [2] has the same target. The source holds these as a separate data set.

Consider 1 substance from publication PMC5293257.

Regarding “integrin α5β1 (from UniProt P08648 42-1049; P05556 21-798) (receptor)”, in test [1], the adhesion of K562 cells to NETs coated plates (NETs from dHL-60 stimulated with 10% FBS), percentage of adherent cells is 59% and the adhesion of K562 cells to NETs coated plates with anti-α5β1 blocking antibody (P1D6), percentage of adherent cells was 24%. Moreover, in test [2], the adhesion of K562 cells to NETs coated plates (NETs from dHL-60 stimulated in serum free conditions), percentage of adherent cells stood at 62% and the adhesion of K562 cells to NETs coated plates (serum free NETs) with anti-integrin blocking Ab, percentage of adherent cells is 10%.
